Results taken from article PMC3771910, “The Crystal Structure and RNA-Binding of an Orthomyxovirus Nucleoprotein” (PLoS Pathogens, 2013).

B1: infectious salmon anemia virus nucleoprotein, full-length (aa 1–616) (natural protein)
chain: MADKGMTYSFDVRDNTLVVRRSTATKSGIKISYREDRGTSLLQKAFAGTEDEFWVELDQDVYVDKKIREFLVEEKMKDMSTRVSGAVAAAIERSVEFDNFSKEAAANIEMAGVDDEEAGGSGLVDNRRKNKGVSNMAYNLSLFIGMVFPALTTFFSAILSEGEMSIWQNGQAIMRILALADEDGKRQTRTGGQRVDMADVTKLNVVTANGKVKQVEVNLNDLKAAFRQSRPKRSDYRKGQGSKATESSISNQCMALIMKSVLSADQLFAPGVKMMRTNGFNASYTTLAEGANIPSKYLRHMRNCGGVALDLMGMKRIKNSPEGAKSKIFSIIQKKVRGRCRTEEQRLLTSALKISDGENKFQRIMDTLCTSFLIDPPRTTKCFIPPISSLMMYIQEGNSVLAMDFMKNGEDACKICREAKLKVGVNSTFTMSVARTCVAVSMVATAFCSADIIENAVPGSERYRSNIKANTTKPKKDSTYTIQGLRLSNVRYEARPETSQSNTDRSWQVNVTDSFGGLAVFNQGAIREMLGDGTSETTSVNVRALVKRILKSASERSARAVKTFMVGEQGKSAIVISGVGLFSIDFEGVEEAERITDMTPEIEFDEDDEEEEDIDI
notes: Nucleoprotein (NP) of infectious salmon anemia virus (ISAV), aa 1-616; Dimer in solution; also called ISAV-NP; wt NP; source: E. coli Rosetta 2 (DE3), purified (HisTrap HP, HiTrap Heparin HP, Superdex 200)

How the values were obtained:
[1] = target: ISAV-NP ΔC16 (aa 1–600) (infectious salmon anemia virus (ISAV)); assay: negative-staining electron microscopy; NP mixed with 24-nt RNA at 2:1 protein:RNA molar ratio in 100 mM NaCl, 25 mM HEPES pH 7.5, 25°C 30 min, purified by gel filtration before use
[2] = target: ISAV-NP ΔC16 (aa 1–600) (infectious salmon anemia virus (ISAV)); assay: SEC; gel filtration chromatography (Superdex 200) of purified recombinant NP; size estimated against three protein standards
[3] = target: the molecule itself; assay: as above

Molecule | stoichiometry N [1] | stoichiometry N [2] | stoichiometry N [3]
ISAV-NP ΔC16 (aa 1–600) (domain or fragment) | 2 | 2 | –
B1 | – | – | 2
